Where two headings read alike, the source gives them in different places.
T1: 4H906-AA
T1 chain: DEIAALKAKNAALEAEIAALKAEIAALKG

T2: 4H454-AA
T2 chain: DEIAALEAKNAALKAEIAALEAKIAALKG

T3: 4H780-AA
T3 chain: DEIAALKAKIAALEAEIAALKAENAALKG

T4: N6-AA
T4 chain: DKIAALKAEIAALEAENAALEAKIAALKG

T5: 4H717-AA
T5 chain: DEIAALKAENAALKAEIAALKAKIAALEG

T6: N5-AA
T6 chain: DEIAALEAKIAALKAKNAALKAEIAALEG

T7: 4H605-AA
T7 chain: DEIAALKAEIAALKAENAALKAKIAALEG

T8: 4H678-AA
T8 chain: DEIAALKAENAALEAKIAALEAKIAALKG

T9: 4H881-AA
T9 chain: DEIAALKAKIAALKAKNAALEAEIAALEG

T10: 4H993-AA
T10 chain: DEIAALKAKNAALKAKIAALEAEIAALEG

T11: 4H794-AA
T11 chain: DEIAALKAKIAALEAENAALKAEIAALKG

T12: 4H48-AA
T12 chain: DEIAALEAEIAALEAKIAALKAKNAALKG

T13: 4H566-AA
T13 chain: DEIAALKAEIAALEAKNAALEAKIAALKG

T14: O14
T14 chain: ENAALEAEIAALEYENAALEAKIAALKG

T15: O3
T15 chain: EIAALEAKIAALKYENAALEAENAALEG

T16: O9
T16 chain: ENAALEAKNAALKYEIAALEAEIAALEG

T17: O6
T17 chain: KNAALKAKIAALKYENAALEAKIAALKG

T18: O13
T18 chain: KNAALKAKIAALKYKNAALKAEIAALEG

T19: O4
T19 chain: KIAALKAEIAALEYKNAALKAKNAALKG

T20: O5
T20 chain: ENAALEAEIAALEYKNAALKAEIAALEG

T21: O16
T21 chain: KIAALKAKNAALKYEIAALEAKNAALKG

T22: O15
T22 chain: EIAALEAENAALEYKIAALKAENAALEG

T23: O2
T23 chain: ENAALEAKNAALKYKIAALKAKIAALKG

T24: O7
T24 chain: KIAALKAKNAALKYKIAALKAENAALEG

T25: O8
T25 chain: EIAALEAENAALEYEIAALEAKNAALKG


Columns and labels:
4H906-AA = target: T1, 4H906-AA; assay: two-hybrid library CCmax; conditions: mean of both orientations;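 also: natural log of median RNA to DNA barcode read ratio; higher means stronger binding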
4H454-AA = target: T2, 4H454-AA; assay: two-hybrid library CCmax;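 also: natural log of median RNA to DNA barcode read ratio; higher means stronger binding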
4H780-AA = target: T3, 4H780-AA; assay: two-hybrid library CCmax; conditions: mean of both orientations;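 also: natural log of median RNA to DNA barcode read ratio; higher means stronger binding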
N6-AA = target: T4, N6-AA; assay: two-hybrid library CCmax; conditions: mean of both orientations;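 also: natural log of median RNA to DNA barcode read ratio; higher means stronger binding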
4H717-AA = target: T5, 4H717-AA; assay: two-hybrid library CCmax; conditions: mean of both orientations;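 also: natural log of median RNA to DNA barcode read ratio; higher means stronger binding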
N5-AA = target: T6, N5-AA; assay: two-hybrid library CCmax; conditions: mean of both orientations;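 also: natural log of median RNA to DNA barcode read ratio; higher means stronger binding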
4H605-AA = target: T7, 4H605-AA; assay: two-hybrid library CCmax; conditions: mean of both orientations
4H678-AA = target: T8, 4H678-AA; assay: two-hybrid library CCmax; conditions: mean of both orientations
4H881-AA = target: T9, 4H881-AA; assay: two-hybrid library CCmax; conditions: mean of both orientations
4H993-AA = target: T10, 4H993-AA; assay: two-hybrid library CCmax; conditions: mean of both orientations
4H794-AA = target: T11, 4H794-AA; assay: two-hybrid library CCmax; conditions: mean of both orientations
4H48-AA = target: T12, 4H48-AA; assay: two-hybrid library CCmax
4H566-AA = target: T13, 4H566-AA; assay: two-hybrid library CCmax; conditions: mean of both orientations
O14 = target: T14, O14; assay: two-hybrid library CC0; conditions: mean of both orientations
O3 = target: T15, O3; assay: two-hybrid library CC0; conditions: mean of both orientations
O9 = target: T16, O9; assay: two-hybrid library CC0; conditions: mean of both orientations
O6 = target: T17, O6; assay: two-hybrid library CC0; conditions: mean of both orientations
O13 = target: T18, O13; assay: two-hybrid library CC0; conditions: mean of both orientations
O4 = target: T19, O4; assay: two-hybrid library CC0; conditions: mean of both orientations
O5 = target: T20, O5; assay: two-hybrid library CC0; conditions: mean of both orientations
O16 = target: T21, O16; assay: two-hybrid library CC0; conditions: mean of both orientations
O15 = target: T22, O15; assay: two-hybrid library CC0; conditions: mean of both orientations
O2 = target: T23, O2; assay: two-hybrid library CC0; conditions: mean of both orientations
O7 = target: T24, O7; assay: two-hybrid library CC0; conditions: mean of both orientations
O8 = target: T25, O8; assay: two-hybrid library CC0; conditions: mean of both orientations

Row | interaction score (4H906-AA) | interaction score (N6-AA) | interaction score (4H717-AA) | interaction score (N5-AA) | interaction score (4H605-AA) | interaction score (4H678-AA) | interaction score (4H881-AA) | interaction score (4H993-AA) | interaction score (4H794-AA) | interaction score (4H566-AA) | Binder | other results
1 | 0.951 | 1.89 | 0.898 | 0.301 | -1.24 | 2.11 | 0.451 | 1.82 | -0.535 | 0.133 | DEIAALEAKNAALKAEIAALEAKIAALKG [4H454-AA] | interaction score (4H454-AA): 1.45; interaction score (4H780-AA): -1.48; interaction score (4H48-AA; mean of both orientations): -0.839
2 | -1.25 | 1.34 | -1.37 | 0.994 | -1.62 | -0.779 | 0.161 | 0.666 | -1.49 | -0.519 | DEIAALEAEIAALEAKIAALKAKNAALKG [4H48-AA] | interaction score (4H48-AA): 1.11
3 | – | – | – | – | – | – | – | – | – | – | KNAALKAKIAALKYKNAALKAEIAALEG [O13] | interaction score (O14): 1.21; interaction score (O3): -2.81; interaction score (O9): -2.75; interaction score (O6): -1.12; interaction score (O13): -2.86; interaction score (O4): -2.72; interaction score (O5): -2.45; interaction score (O16): -2.87; interaction score (O15): -0.499; interaction score (O2): -2.82; interaction score (O7): -2.81; interaction score (O8): -1.5
